Two variants from IntAct's records for PubMed 20371544 can be followed below.

To fix the notation:
B1: Muscle, skeletal receptor tyrosine-protein kinase (Mus musculus), Q61006 (parent)
chain: MRELVNIPLLQMLTLVAFSGTEKLPKAPVITTPLETVDALVEEVATFMCAVESYPQPEISWTRNKILIKLFDTRYSIRENGQLLTILSVEDSDDGIYCCIANNGVGGAVESCGALQVKMKPKITRPPINVKIIEGLKAVLPCTTMGNPKPSVSWIKGDNALRENSRIAVLESGSLRIHNVQKEDAGQYRCVAKNSLGTAYSKLVKLEVEVFARILRAPESHNVTFGSFVTLRCTAIGIPVPTISWIENGNAVSSGSIQESVKDRVIDSRLQLFITKPGLYTCIATNKHGEKFSTAKAAATVSIAEWSKSQKDSQGYCAQYRGEVCDAVLAKDALVFFNTSYRDPEDAQELLIHTAWNELKAVSPLCRPAAEALLCNHLFQECSPGVVPTPMPICREYCLAVKELFCAKEWQAMEGKAHRGLYRSGMHLLPVPECSKLPSMHRDPTACTRLPYLDYKKENITTFPSITSSRPSADIPNLPASTSSFAVSPAYSMTVIISIVSSFALFALLTIATLYCCRRRKEWKNKKRESTAVTLTTLPSELLLDRLHPNPMYQRMPLLLNPKLLSLEYPRNNIEYVRDIGEGAFGRVFQARAPGLLPYEPFTMVAVKMLKEEASADMQADFQREAALMAEFDNPNIVKLLGVCAVGKPMCLLFEYMAYGDLNEFLRSMSPHTVCSLSHSDLSTRARVSSPGPPPLSCAEQLCIARQVAAGMAYLSERKFVHRDLATRNCLVGETMVVKIADFGLSRNIYSADYYKADGNDAIPIRWMPPESIFYNRYTTESDVWAYGVVLWEIFSYGLQPYYGMAHEEVIYYVRDGNILACPENCPLELYNLMRLCWSKLPADRPSFCSIHRILQRMCERAEGTVGV
partner: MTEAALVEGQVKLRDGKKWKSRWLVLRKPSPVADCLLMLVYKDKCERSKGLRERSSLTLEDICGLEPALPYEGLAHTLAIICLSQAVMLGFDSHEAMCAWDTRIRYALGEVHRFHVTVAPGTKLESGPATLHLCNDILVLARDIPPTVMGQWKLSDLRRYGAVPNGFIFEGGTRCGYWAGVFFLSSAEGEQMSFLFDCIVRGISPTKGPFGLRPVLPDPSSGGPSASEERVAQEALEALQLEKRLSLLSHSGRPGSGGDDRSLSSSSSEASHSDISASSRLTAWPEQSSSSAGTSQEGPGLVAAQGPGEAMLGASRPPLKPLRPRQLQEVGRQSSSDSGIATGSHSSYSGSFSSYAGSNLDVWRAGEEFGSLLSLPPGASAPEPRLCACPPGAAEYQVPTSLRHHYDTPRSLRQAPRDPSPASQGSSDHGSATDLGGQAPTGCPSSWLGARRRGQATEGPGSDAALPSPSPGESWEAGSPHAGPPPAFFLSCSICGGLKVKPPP

The variants in the experiment derive from B1. Particulars: with dok7_mouse Dok7, Q18PE0.
A726V: the “effect of a mutation on the interaction” value is “disrupting interaction”. Then M604I, with “decreasing interaction”.
